Measured values reported in patent US20100151496A1.

Target: TRAP-220-EA-Nuc fusion protein
Test: cell-based or functional assay

ERRα (estrogen-related receptor α) fused to the small β-galactosidase fragment (NHR-PK fusion), expressed in CHO cells
EC50 of the small-molecule inverse agonist XCT790 for loss of the β-galactosidase complementation signal (ERRα fusion with coactivator-EA fusion) in CHO cells: 300 nM
S/B (signal/background) of β-galactosidase enzyme fragment complementation in CHO cells; loss of signal with the inverse agonist XCT790: 3 fold
